Experiments:
[1] = tested on: Nsp1 N127 (6His-Nsp1(N127)) (SARS-CoV-2); assay: MST; conditions: assay buffer not stated ([…]
[2] = tested on: Nsp1 full-length (6His-Nsp1) (SARS-CoV-2); assay: MST; conditions: assay buffer not stated ([…]

Substance | Kd [1] | Kd [2]
CoV2 5' UTR 1-50 RNA | 77.8 µM | 6.3 µM
TIAR 5' UTR 1-50 RNA | 112 µM | 4.23 µM

From paper doi:10.1101/2025.08.04.668557
